Experimental data: patent US10618964B2, “Nanobody against IL-6R” (Ablynx N.V., dated 2020)
Where a chain is given by its changes, count along the chain named.

B1: IL6RPMP120C11 (VHH)
VHH: EVQLVESGGGLVQAGGSLSLSCATSGRTISDDTMAWFRQAPGKEREFVATITFSGARTHYSDSVRDRFTISRDNAKNTVYLQMNSLKSEDTAVYYCAASTKYYSSTYNYIHPAFYDIWGQGTQVTVSS
B2: IL6RPMP120B7 (VHH)
VHH: B1 VHH
B3: IL6RPMP101H6 (VHH)
VHH: EMQLVESGGGLVQAGGSLRLSCTASGRTFTDYDMGWFRQAPGKEREVVAIIDTNGDNTLTVGSVKGRFAISSDNAKNTVYLQMNSLLPEDTAVYTCAAGAWSALRRSVANYWGQGTQVTVSS
B4: IL6RPMP101A5 (VHH)
VHH: B3 VHH with M2V, T30S, V47C, T60I, A100V, A103S, R106H, S107T, V108A
B5: IL6RPMP108D1 (VHH)
VHH: B3 VHH with M2V, T30S, V47C, I50V, S72R, A103S, R106S, S107T, V108A, Q117K
B6: IL6RPMP108F7 (VHH)
VHH: B3 VHH with M2V, T30S, V47C, I50V, S72R, A103S, R106S, S107T, V108A
B7: IL6RPMP101C2 (VHH)
VHH: B3 VHH with M2V, T30S, V47C, T60I, A100V, A103S, R106H, S107T, V108A
B8: IL6RPMP101D1 (VHH)
VHH: B3 VHH with M2V, T30S, V47C, T60I, A100V, A103S, R106H, S107T, V108A
B9: IL6RPMP108D10 (VHH)
VHH: B3 VHH with M2V, L11S, T30S, V47C, I50V, S72R, A103S, R106S, S107T, V108A
B10: IL6RPMP106B2 (VHH)
VHH: EVQLVESGGGLVQAGGSLRLSCAASGSIFRINAMGWYRQAPGKQRELVAAAISGGSTNYADFVKGRFTISRDNAKNTVYLQMNSLKPEDTAVYYCNALVVSHNYSDYVPFPDDYWGQGTQVTVSS
B11: IL6RPMP100A6 (VHH)
VHH: EVQLVESGGGLVQAGDSLRLSCLASGRSFKDDAMGWFRQAPGKEREFVSGIDWRGNIVDAESVKGRFTISRENAKNTLYLQMNHLKPEDTAVYYCAASSVFSDLRYRKNPKYWGQGTQVTVSS
B12: IL6RPMP101D2 (VHH)
VHH: EVQMVESGGGLVQAGGSLRLSCAASGFAFDDYAIGWFRQAPGKEREGVSSISSSNGNTYYADSVRGRFTISSDNAKNTVYLQMNSLKPEDAGVYYCAAIWGIFFNEKMPVGAYDYWGQGTQVTVSS
B13: IL6RPMP101F1 (VHH)
VHH: B12 VHH with M4L, A91T
B14: IL6RPMP101G4 (VHH)
VHH: B12 VHH with M4L, A91T
B15: IL6RPMP101E1 (VHH)
VHH: B12 VHH with M4L, A91T
B16: IL6RPMP101H3 (VHH)
VHH: B12 VHH with M4L, A91T
B17: IL6RPMP105B8 (VHH)
VHH: B12 VHH with M4L, Q13R, A91T
B18: IL6RPMP101F3 (VHH)
VHH: B12 VHH with M4L, A91T
B19: IL6RPMP105E11 (VHH)
VHH: B12 VHH with M4L, S85G, A91T
B20: IL6RPMP107H5 (VHH)
VHH: EVPLVESGGGLVQAGGSLNLSCNASGDIGSINAMGWYRQAPGQQREWVAVITDTDSTIYPDSVKGRFAISRDGAKNTVHLRMSSLKPEDTAVYYCNAYQAGWGDYWGQGTQVTVSS
B21: IL6RPMP101A4 (VHH)
VHH: EVQLVESGGGTVQAGGSLKLSCAASGRTFTNYAMGWFRQAPGKEREFVAAIAYATHFADSVKGRFTISRGNAKNTVYLQMNSLKPEDAAVYYCAADLSLSKMVSKITSDMDYWGKGTLVTVSS
B22: IL6RPMP119A10 (VHH)
VHH: EVQLVESGGGLVQPGGSLRLSCAASKSIFDINAMYWHRQAPGKQRESVASITSGGMRNYADSVKDRFTISKDNAKNTVYLQMNGLKPDDTAVYYCGLGRYEGGVWRDYWGQGTQVTVSS
B23: IL6RPMP100A10 (VHH)
VHH: EVQLVESGGGLVQAGGSLRLSCAASGRGFSPYTMGWFRQAPGKERVFVAGISWSTGIAHYTDSVKGRFTISRDNAKNTGSLQMNSLKPEDTAVYYCAVVQTTKGNYDYWGQGTQVTVSS
B24: IL6RPMP103A4 (VHH)
VHH: EVQLVESGGGLVQPGGSLRLSCAASGSIFSINTMGWYRQVPGKQRELVATVRSGSITNYADSVQDRFTITRDIDENTVYLQMNSLKPEDTAVYYCLTRASVPGRGYQDYWGQGTQVTVSS
B25: IL6RPMP107H2 (VHH)
VHH: KVQLVESGGGLVQPGGSLRLSCAASGFTFSSYAMSWVRRAPGKGLEWVSAINSDGTGSSYAPFVTGRFTASRDNAKNTLYLQMNSLKPEDTAVYYCTNSNRYDYADFSAVRGQGTQVTVSS
B26: IL6RPMP108D2 (VHH)
VHH: EVQLVESGGGLVQAGGSLRLSCAASGFTFDDYDIGWFRQAPGKEREGVSGISSSDGNTYYADSVKGRFTISSDNAKNTVYLQMNSLKPEDTAVYYCAAEPPDSSWYLDGSPEFFKYWGQGTQVTVSS

Target: T1, native soluble IL-6R in human plasma (human, UniProt P08887)
Assay: ELISA 1, periplasmic extract; competitor IL-6; human plasma
Experimental: (§1) In this ELISA, plasma was used as a source of native soluble IL-6R. By this assay, we aimed to confirm the alphascreen results and to get a view on the cross-reactivity of the clones towards cynomolgous IL-6R. Human plasma (ELISA 1 and ELISA 3) or cynomolgous plasma (ELISA 2) were pre-incubated with a dilution of the periplasmic extract of the clones together with human IL-6 (50 ng/mL). Subsequently, plasma soluble IL-6R was captured on a B-N12 coated plate and bound IL-6 was detected using anti-IL-6 antibody BAF206 and streptavidin-HRP (ELISA 1 and ELISA 2). The ELISA signal dropped when the Nanobody clone could compete with IL-6 for binding to soluble IL-6R. ELISA 3 was a parallel ELISA in which the detection antibody was replaced by anti-IL-6R antibody BAF227 to exclude false positive competitors, which actually compete with B-N12 (e.g. family 2). Depicted in Table C-5 is the ratio of the OD450 value of the test sample versus the blank OD450 (mock sample). Clones were ordered based on ELISA 1 data.

OD450 ratio sample/blank | Binder
0.673 | B1
0.714 | B2
0.788 | B3
1.03 | B4
0.87 | B5
1.05 | B6
1.04 | B7
0.812 | B8
0.961 | B9
0.99 | B10
0.948 | B11
0.124 | B12
0.754 | B13
0.796 | B14
0.716 | B15
0.772 | B16
0.808 | B17
0.758 | B18
0.679 | B19
0.901 | B20
0.792 | B21
0.877 | B22
0.748 | B23
1.04 | B24
0.865 | B25
0.0624 | B26

Target: soluble IL-6R in cynomolgous plasma (cynomolgus monkey, UniProt A0A2K5WN54)
Assay: ELISA 2, periplasmic extract; competitor IL-6; cyno plasma
Experimental: as §1

OD450 ratio sample/blank | Binder
0.296 | B1
0.299 | B2
0.713 | B3
0.736 | B4
0.79 | B5
0.8 | B6
1.03 | B7
0.79 | B8
0.761 | B9
1.02 | B10
0.722 | B11
0.822 | B12
0.829 | B13
0.815 | B14
0.805 | B15
0.859 | B16
0.816 | B17
0.822 | B18
0.691 | B19
0.997 | B20
0.713 | B21
0.249 | B22
0.189 | B23
0.916 | B24
0.6 | B25
0.345 | B26

Target: T1, native soluble IL-6R in human plasma
Assay: ELISA 3, periplasmic extract; competitor BN-12; human plasma
Experimental: as §1

OD450 ratio sample/blank | Binder
0.988 | B1
1.03 | B2
0.954 | B3
0.95 | B4
1.04 | B5
1.02 | B6
0.952 | B7
0.928 | B8
1.03 | B9
0.984 | B10
0.923 | B11
0.977 | B12
0.957 | B13
1.02 | B14
0.947 | B15
0.954 | B16
1.03 | B17
0.984 | B18
0.971 | B19
1.03 | B20
0.99 | B21
0.989 | B22
0.97 | B23
1.03 | B24
0.962 | B25
0.916 | B26
